Assay results from patent publication US20250296960A1, “PEPTIDE COMPOSITIONS AND METHODS OF USE THEREOF” (priority 2022, published 2025).
Like-named read-outs stand apart in the source and are kept apart here. Numbered stars: 1 amine (or outer) side, 2 acyl side, 3 side chain; on linkers, the order of the positions; unused ones are H or OH. Square brackets hold non-standard residues; d marks the D form. Primed or numbered codes have the meaning given here. Side chains are listed from the residue outwards. Ends that are not written are not given here. Peptide text beside a SMILES is read from it. * marks the point of attachment. C18 = C18 fatty acid (C16-C22 fatty acids conjugated via γGlu/8-amino-3,6-dioxaoctanoic acid spacers); C18″ = C18 fatty acid moiety (of 2OEG-γGlu-C18, K*); C20 = C20 fatty acid moiety (of 2OEG-γGlu-C20, K**); C20 diacid = O=C(O)CCCCCCCCCCCCCCCCCCC(=O)*; γGlu = O=C(O)[C@H](CCC(=O)[*:2])N[*:1]; αMeR = C[C@](N)(CCCNC(=N)N)C(=O)O; AEEA = NCCOCCOCC(=O)O; Aib = CC(C)(N)C(=O)O

Tests used:
[1] = In vivo efficacy in CDA-HFD (NASH) mice, 4 weeks; conditions: Example 16; for body weight compared to vehicle-treated control, in words: 20 nmol/kg s.c. Q2D, 4 weeks; for liver enzymes and liver steatosis compared to vehicle-treated control, in words: end of treatment
Procedure: This study was conducted to evaluate the efficacy of SEQ ID NOs. […] SEQ ID NOs. The peptides were delivered at 0.02% PS80 in PBS and dosing volume was 10 mL/kg. Control group was administered by vehicle without peptide.
Body weight changes were monitored Q2D; serum chemistry (end); hepatic TG (end); and histological analysis (end). […]

[2] = rat, in vivo, iv, 100 nmol/kg
Procedure: This study was conducted to evaluate the PK profile of SEQ ID NOs. 77, 102, and 103 and compare the PK profile by the different lipidated structure of peptides in rat plasma by IV administration. SEQ ID NOs. The peptides were delivered at 0.02% PS80 in PBS and dosing volume was 2.5 mL/kg.
The animals were not fasted prior to dosing. 0.2-0.4 mL of whole blood was taken from vein at each time point (0.167, 0.5, 1, 2, 4, 6, 8, 24, and 48 hr after administration) and transferred into the heparin coated tube.
The resulting plasma of 0.1-0.2 mL obtained by centrifugation of the blood samples was transferred into the tube and stored at −70° C. until analysis. The concentrations of peptides in plasma were determined by LC-MS/MS analysis.

[3] = In vivo efficacy in mAMLN (obese and NASH) mice, 4 weeks; conditions: after 4 weeks
[4] = biological target: T1, human GLP-1 receptor (GLP-1R), expressed on CHO-K1 cells (human, UniProt P43220 24-463); test: cell-based or functional assay
[5] = biological target: T2, human glucagon receptor (GCGR), expressed on CHO-K1 cells (human, UniProt P47871 26-477); test: cell-based or functional assay
[6] = biological target: T3, human glucose-dependent insulinotropic polypeptide receptor (GIPR), expressed on CHO-K1 cells (human, UniProt P48546 22-466); test: cell-based or functional assay
T3 sequence (looked up): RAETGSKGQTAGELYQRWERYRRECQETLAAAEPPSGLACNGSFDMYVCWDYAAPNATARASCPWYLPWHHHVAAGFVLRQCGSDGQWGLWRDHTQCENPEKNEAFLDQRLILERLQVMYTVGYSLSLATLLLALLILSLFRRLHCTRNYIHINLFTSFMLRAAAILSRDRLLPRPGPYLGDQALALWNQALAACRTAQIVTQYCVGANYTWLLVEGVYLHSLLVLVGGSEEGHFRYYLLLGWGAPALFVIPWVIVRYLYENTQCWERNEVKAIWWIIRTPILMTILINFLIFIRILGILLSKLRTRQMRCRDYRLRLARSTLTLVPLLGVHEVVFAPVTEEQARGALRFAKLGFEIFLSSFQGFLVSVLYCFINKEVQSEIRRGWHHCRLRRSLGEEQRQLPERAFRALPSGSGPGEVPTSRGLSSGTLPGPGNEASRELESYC

[7] = biological target: T1, human GLP-1 receptor (GLP-1R), …; test: cell-based or functional assay; remark: listed apart in the source
[8] = biological target: T2, human glucagon receptor (GCGR), …; test: cell-based or functional assay; remark: listed apart in the source
[9] = biological target: T3, human glucose-dependent insulinotropic …; test: cell-based or functional assay; remark: listed apart in the source
[10] = biological target: T1, human GLP-1 receptor (GLP-1R), …; test: cell-based or functional assay; remark: listed apart in the source
[11] = biological target: T2, human glucagon receptor (GCGR), …; test: cell-based or functional assay; remark: listed apart in the source
[12] = biological target: T3, human glucose-dependent insulinotropic …; test: cell-based or functional assay; remark: listed apart in the source
[13] = biological target: T1, human GLP-1 receptor (GLP-1R), …; test: cell-based or functional assay; remark: listed apart in the source
[14] = biological target: T2, human glucagon receptor (GCGR), …; test: cell-based or functional assay; remark: listed apart in the source
[15] = biological target: T3, human glucose-dependent insulinotropic …; test: cell-based or functional assay; remark: listed apart in the source
[16] = biological target: T1, human GLP-1 receptor (GLP-1R), …; test: cell-based or functional assay; remark: listed apart in the source
[17] = biological target: T2, human glucagon receptor (GCGR), …; test: cell-based or functional assay; remark: listed apart in the source
[18] = biological target: T3, human glucose-dependent insulinotropic …; test: cell-based or functional assay; remark: listed apart in the source

T2 sequence (P47871 26-477): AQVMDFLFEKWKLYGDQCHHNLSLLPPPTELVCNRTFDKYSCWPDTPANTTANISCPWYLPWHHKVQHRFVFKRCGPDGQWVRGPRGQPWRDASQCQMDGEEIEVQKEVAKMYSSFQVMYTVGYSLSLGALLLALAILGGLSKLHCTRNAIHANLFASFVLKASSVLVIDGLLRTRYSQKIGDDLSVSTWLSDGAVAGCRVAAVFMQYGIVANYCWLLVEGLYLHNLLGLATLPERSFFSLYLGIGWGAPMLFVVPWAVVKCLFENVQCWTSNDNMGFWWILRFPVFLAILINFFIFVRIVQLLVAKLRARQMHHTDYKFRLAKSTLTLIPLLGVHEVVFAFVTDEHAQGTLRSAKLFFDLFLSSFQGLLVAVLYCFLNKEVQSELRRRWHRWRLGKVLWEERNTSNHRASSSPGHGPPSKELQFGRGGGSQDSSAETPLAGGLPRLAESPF

CSCC[C@H](NC(=O)[C@H](Cc1ccc(O)cc1)NC(=O)[C@H](CC(=O)O)NC(=O)[C@H](CC(C)C)NC(=O)[C@H](CC(C)C)NC(=O)[C@H](CCCCNC(=O)COCCOCCNC(=O)CC[C@H](NC(=O)CCCCCCCCCCCCCCCCCCC(=O)O)C(=O)O)NC(=O)[C@H](CO)NC(=O)[C@H](Cc1ccc(O)cc1)NC(=O)[C@H](CC(=O)O)NC(=O)[C@H](CO)NC(=O)[C@@H](NC(=O)[C@H](Cc1ccccc1)NC(=O)[C@@H](NC(=O)CNC(=O)[C@H](CCC(N)=O)NC(=O)C(C)(C)NC(=O)[C@@H](N)Cc1ccc(O)cc1)[C@@H](C)O)[C@@H](C)O)C(=O)N[C@@H](CCSC)C(=O)N[C@@H](CCC(N)=O)C(=O)N[C@@H](CCCNC(=N)N)C(=O)N[C@@H](CC(=O)O)C(=O)N[C@@H](Cc1ccccc1)C(=O)N[C@H](C(=O)N[C@@H](CCC(N)=O)C(=O)N[C@@H](Cc1c[nH]c2ccccc12)C(=O)N[C@@H](CC(C)C)C(=O)N[C@@H](CC(C)C)C(=O)N[C@@H](CCC(=O)O)C(=O)NCC(=O)NCC(=O)N1CCC[C@H]1C(=O)N[C@@H](CO)C(=O)N[C@@H](CO)C(=O)NCC(=O)N[C@@H](C)C(=O)N1CCC[C@H]1C(=O)N1CCC[C@H]1C(=O)N1CCC[C@H]1C(=O)N[C@@H](CO)C(N)=O)C(C)C [compound 102] (H-Y[Aib]QGTFTSDYSK([AEEA-γGlu-C20 diacid])LLDYMMQRDFVQWLLEGGPSSGAPPPS-NH2; N-terminus and C-terminus assumed)
scores of hepatocytes inflammation and NAS score, in words [1]: statistically reduced
body weight compared to vehicle-treated control, in words [1]: reduce body weight
liver enzymes and liver steatosis compared to vehicle-treated control, in words [1]: reduce liver enzymes and liver steatosis significantly
AUCinf/dose [2]: 672.93 ± 32.13 kg·h/L
half-life [2]: 9.77 ± 0.89 h

CSCC[C@H](NC(=O)[C@H](Cc1ccc(O)cc1)NC(=O)[C@H](CC(=O)O)NC(=O)[C@H](CC(C)C)NC(=O)[C@H](CC(C)C)NC(=O)[C@H](CCCCNC(=O)COCCOCCNC(=O)COCCOCCNC(=O)CC[C@H](NC(=O)CCCCCCCCCCCCCCCCCCC(=O)O)C(=O)O)NC(=O)[C@H](CO)NC(=O)[C@H](Cc1ccc(O)cc1)NC(=O)[C@H](CC(=O)O)NC(=O)[C@H](CO)NC(=O)[C@@H](NC(=O)[C@H](Cc1ccccc1)NC(=O)[C@@H](NC(=O)CNC(=O)[C@H](CCC(N)=O)NC(=O)C(C)(C)NC(=O)[C@@H](N)Cc1ccc(O)cc1)[C@@H](C)O)[C@@H](C)O)C(=O)N[C@@H](CCSC)C(=O)N[C@@H](CCC(N)=O)C(=O)N[C@@H](CCCNC(=N)N)C(=O)N[C@@H](CC(=O)O)C(=O)N[C@@H](Cc1ccccc1)C(=O)N[C@H](C(=O)N[C@@H](CCC(N)=O)C(=O)N[C@@H](Cc1c[nH]c2ccccc12)C(=O)N[C@@H](CC(C)C)C(=O)N[C@@H](CC(C)C)C(=O)N[C@@H](CCC(=O)O)C(=O)NCC(=O)NCC(=O)N1CCC[C@H]1C(=O)N[C@@H](CO)C(=O)N[C@@H](CO)C(=O)NCC(=O)N[C@@H](C)C(=O)N1CCC[C@H]1C(=O)N1CCC[C@H]1C(=O)N1CCC[C@H]1C(=O)N[C@@H](CO)C(N)=O)C(C)C [compound 103] (H-Y[Aib]QGTFTSDYSK([AEEA-AEEA-γGlu-C20 diacid])LLDYMMQRDFVQWLLEGGPSSGAPPPS-NH2; N-terminus and C-terminus assumed)
efficacy in the NASH model, in words [1]: superior efficacy compared to SEQ ID NO. 77
hepatic steatosis score compared to CDA-HFD control, in words [1]: significantly reduced
scores of hepatocytes inflammation and NAS score, in words [1]: statistically reduced
body weight compared to vehicle-treated control, in words [1]: reduce body weight
liver enzymes and liver steatosis compared to vehicle-treated control, in words [1]: reduce liver enzymes and liver steatosis significantly
AUCinf/dose [2]: 629.51 ± 76.87 kg·h/L
half-life [2]: 9.59 ± 1.32 h

97 (Y[Aib]QGTFTSDYSK([AEEA-AEEA-γGlu-C18])YLDYMMQRDFVK(N‑Biotinoyl‑N'‑(6-maleimidohexanoyl)hydrazide)WLLEGGPSSGAPPPS-NH2) [compound 97]
NAS score, in words [3]: statistically decreased more than the level of tirzepatide
hepatic steatosis (histological score), in words [3]: significantly reduced
liver weight, visceral fat weight, liver enzymes, and liver steatosis compared to vehicle-treated control, in words [3]: significantly reduced

Y[Aib]QGTFTSDYSK([AEEA-AEEA-γGlu-C18″])LLDYMMQRDFVQWLLEGGPSSGAPPPS-NH2 [Peptide No. 5-3D]
Relative % to native ligand [4]: 119%
Relative % to native ligand [5]: 11%
Relative % to native ligand [6]: 1050%
Ratio vs. GLP-1R [7]: 100
Ratio vs. GLP-1R [8]: 9
Ratio vs. GLP-1R [9]: 880
Relative % to non-lipidated peptide [10]: 19%
Relative % to non-lipidated peptide [11]: 1%
Relative % to non-lipidated peptide [12]: 15%
Ratio vs. GLP-1R [13]: 100
Relative % to native ligand [13]: 219%
Ratio vs. GLP-1R [14]: 26
Relative % to native ligand [14]: 56%
Ratio vs. GLP-1R [15]: 105
Relative % to native ligand [15]: 230%

Y[Aib]QGTFTSDYSK([AEEA-AEEA-γGlu-C18])LLDYMMQHDFVQWLLEGGPSSGAPPPS-NH2 [SEQ ID NO. 99]
Ratio vs. GLP-1R [13]: 100
Relative % to native ligand [13]: 35%
Ratio vs. GLP-1R [14]: 80
Relative % to native ligand [14]: 28%
Ratio vs. GLP-1R [15]: 3240
Relative % to native ligand [15]: 1130%

Y[Aib]QGTFTSDYSK([AEEA-AEEA-γGlu-C18″])LLDYMMQQDFVQWLLEGGPSSGAPPPS-NH2 [SEQ ID NO. 100]
Ratio vs. GLP-1R [13]: 100
Relative % to native ligand [13]: 54%
Ratio vs. GLP-1R [14]: 56
Relative % to native ligand [14]: 30%
Ratio vs. GLP-1R [15]: 103
Relative % to native ligand [15]: 55%

Y[Aib]QGTFTSDYSK([AEEA-AEEA-γGlu-C18″])LLDYMMQ[αMeR]DFVQWLLEGGPSSGAPPPS-NH2 [SEQ ID NO. 101]
Ratio vs. GLP-1R [13]: 100
Relative % to native ligand [13]: 722%
Ratio vs. GLP-1R [14]: 12
Relative % to native ligand [14]: 89%
Ratio vs. GLP-1R [15]: 65
Relative % to native ligand [15]: 472%

Y[Aib]QGTFTSDYSK([AEEA-AEEA-γGlu-C20])YLDYMMQ[αMeR]DFVQWLLEGGPSSGAPPPS-NH2 [SEQ ID NO. 107]
Ratio vs. GLP-1R [16]: 100
Relative % to native ligand [16]: 37%
Ratio vs. GLP-1R [17]: 37
Relative % to native ligand [17]: 14%
Ratio vs. GLP-1R [18]: 537
Relative % to native ligand [18]: 200%

Y[Aib]QGTFTSDYSK([AEEA-AEEA-γGlu-C20])LLDYMMQ[αMeR]DFVQWLLEGGPSSGAPPPS-NH2 [SEQ ID NO. 108]
Ratio vs. GLP-1R [16]: 100
Relative % to native ligand [16]: 46%
Ratio vs. GLP-1R [17]: 83
Relative % to native ligand [17]: 39%
Ratio vs. GLP-1R [18]: 971
Relative % to native ligand [18]: 451%
